Test results: PMC5698462, “Production of recombinant human procollagen type I C-terminal propeptide and establishment of a sandwich ELISA for quantification” (Scientific Reports, 2017)

B1: Procollagen type I carboxy-terminal propeptide α2 chain (PICPα2), residues 1120–1366, with N-terminal c-myc tag (domain or fragment, human, UniProt P08123 1120-1366, looked up)
chain: DQPRSAPSLRPKDYEVDATLKSLNNQIETLLTPEGSRKNPARTCRDLRLSHPEWSSGYYWIDPNQGCTMDAIKVYCDFSTGETCIRAQPENIPAKNWYRSSKDKKHVWLGETINAGSQFEYNVEGVTSKEMATQLAFMRLLANYASQNITYHCKNSIAYMDEETGNLKKAVILQGSNDVELVAEGNSRFTYTVLVDGCSKKTNEWGKTIIEYKTNKPSRLPFLDIAPLDIGGADQEFFVDIGPVCFK
notes: C-terminal propeptide of the human type I procollagen α2 chain, residues 1120–1366 (residue numbers of type I procollagen); a restriction site was removed by a silent mutation; Cloned into pSecTag2A (AscI/ApaI) for secretion; also called c-myc-tagged PICPα2; source: HEK293F, transiently co-transfected with the PICPα1 plasmid (PICPα1:PICPα2 2:1 molar ratio), secreted; co-purified from culture …
B3: Procollagen type I carboxy-terminal propeptide α1 chain (PICPα1), residues 1218–1464, with N-terminal 8× His tag (domain or fragment, human, UniProt P02452 1218-1464, looked up)
chain: ADDANVVRDRDLEVDTTLKSLSQQIENIRSPEGSRKNPARTCRDLKMCHSDWKSGEYWIDPNQGCNLDAIKVFCNMETGETCVYPTQPSVAQKNWYISKNPKDKRHVWFGESMTDGFQFEYGGQGSDPADVAIQLTFLRLMSTEASQNITYHCKNSVAYMDQQTGNLKKALLLQGSNEIEIRAEGNSRFTYSVTVDGCTSHTGAWGKTVIEYKTTKTSRLPIIDVAPLDVGAPDQEFGFDVGPVCFL
notes: C-terminal propeptide of the human type I procollagen α1 chain, residues 1218–1464 (residue numbers of type I procollagen); Cloned into pSecTag2A (AscI/ApaI) for secretion; Two copies of this chain stand with one PICPα2 chain in the disulfide-linked PICP heterotrimer; also called 8× His-tagged PICPα1; recombinant PICPα1 chain; source: HEK293F, transiently co-transfected with the PICPα2 plasmid at …

Tests used:
[1] = target: B3; assay: pull-down; Ni-NTA purification through the 8× His tag on PICPα1 from culture supernatant of HEK293F cells co-transfected with PICPα1 and PICPα2 plasmids (2:1); western blot with anti-His and anti-c-myc antibodies, non-reducing and reducing SDS-PAGE; conditions: partners not purified
[2] = target: the molecule itself; assay: SEC; Superdex 200 10/300 GL; purified PICP (2 mg/mL) in TBS (500 mM NaCl, 2.7 mM KCl, 12 mM Tris, pH 7.4); purified PIIICP in PBS pH 7.4; apparent molecular weight against standard markers
[3] = target: B1; assay: non-reducing and reducing SDS-PAGE (stain, western blot) and SDS-CGE; purified proteins run under non-reducing and reducing conditions; band intensity (ImageJ) and peak area (Agilent 2100 bioanalyzer, Protein 230 kit) quantified; disulfide-linked trimers; conditions: both partners purified

B1: binds [1].

B2: Procollagen type III C-terminal propeptide (PIIICP), homotrimer of PIIICPα1 (residues 1222–1466) with N-terminal 8× His tag (domain or fragment, human, UniProt P02461 1222-1466, looked up)
chain: DEPMDFKINTDEIMTSLKSVNGQIESLISPDGSRKNPARNCRDLKFCHPELKSGEYWVDPNQGCKLDAIKVFCNMETGETCISANPLNVPRKHWWTDSSAEKKHVWFGESMDGGFQFSYGNPELPEDVLDVHLAFLRLLSSRASQNITYHCKNSIAYMDQASGNVKKALKLMGSNEGEFKAEGNSKFTYTVLEDGCTKHTGEWSKTVFEYRTRKAVRLPIVDIAPYDIGGPDQEFGVDVGPVCFL
notes: C-terminal propeptide of the human type III procollagen α1 chain, residues 1222–1466; Mammalian secretion plasmid; also called 8× His-tagged PIIICPα1; recombinant PIIICP; source: HEK293F, transiently transfected, secreted; purified from culture supernatant (Ni-NTA); not shown: 8× His, N-terminal, kept
For B2, the “stoichiometry N” value [2] was 3.

In the case of B3, the “stoichiometry N” value [3] is reported as 2 PICPα1 chains per PICPα2 chain.
